Kd data for two molecules are collected here from patent US20130142732, “RECOMBINANT FLUORESCENT NANOPARTICLES” (KOREA UNIVERSITY RESEARCH AND BUSINESS FOUNDATION, published 2013).

In series [1] the target is T1, PDGF-BB (UniProt P01127 P01127:82-190). The series can be described thus: printed as 5.0 x 1011 mol/L, exponent sign lost; sandwich plate assay with biotin-aptamer capture, PBS, 37 C, linearized Langmuir. Conditions: tags: Sigma-Aldrich; chain copies: 2 (homodimer, inferred); label: Cy3. On the procedure: (§1) On the Basis of the linearized form of the Langmur absorption isotherm and the linear curve of FIG. 5C, the dissociation constants (KD) were determined by a PDGF-BB analysis method using each of the DNA-aptamer-conjugated gFFNP, eGFP, and Cy3, and the results are shown in Table 7.
T1 sequence (P01127 82-190, one chain of several): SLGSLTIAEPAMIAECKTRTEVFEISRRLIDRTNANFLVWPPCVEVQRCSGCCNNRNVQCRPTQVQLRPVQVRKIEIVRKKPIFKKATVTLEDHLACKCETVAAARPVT

Series [2] has as its target T1, PDGF-BB. The series can be described thus: printed as 4.0 x 1011 mol/L, exponent sign lost; sandwich plate assay with biotin-aptamer capture, PBS, 37 C, linearized Langmuir. The settings on record: tags: Sigma-Aldrich; chain copies: 2 (homodimer, inferred); label: eGFP. On the procedure: as §1

As for CACAGGCTACGGCACGTAGAGCATCACCATGATCCTGTGT (ssDNA, 5'-Cy3) [PDGF-BB DNA aptamer Cy3-modified], the affinity in the series with PDGF-BB [1], expressed as Kd, was 0.05 nM.
For CACAGGCTACGGCACGTAGAGCATCACCATGATCCTGTGT (ssDNA, 5'-NH2-(CH2)6, SSMCC-coupled to eGFP(S175C)) [PDGF-BB DNA aptamer conjugated to eGFP], the affinity in the series with PDGF-BB [2], expressed as Kd, was 0.04 nM.
